Test results from PMC3826083.

Legend:
[1] = molecular target: mCherry-R125I; assay: fluorescence polarisation
[2] = molecular target: mCherry-R125I/T127V; assay: fluorescence polarisation

mCherry-R125I gave a Kd [1] of 35 µM.

mCherry-R125I/T127V gave a Kd [2] of 91 nM.
